Laboratory results from publication PMC3982596.

Biological target: YFP-LacI-HP1α (human) (UniProt P45973)
Sequence of UniProt P45973 (P45973 whole entry): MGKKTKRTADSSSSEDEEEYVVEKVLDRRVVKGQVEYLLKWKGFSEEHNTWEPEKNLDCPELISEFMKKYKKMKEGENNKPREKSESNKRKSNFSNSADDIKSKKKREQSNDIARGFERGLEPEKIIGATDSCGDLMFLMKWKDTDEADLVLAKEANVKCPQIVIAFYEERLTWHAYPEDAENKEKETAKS

- percent of cells with the binder at the tethered locus (% of the cells): 18
Substance: CFP-NDR1 (from UniProt Q15208 1-465) (enzyme)
